The data set in a line: soluble on expression in E. coli; label from the status in PepcDB or PDB records.
As for “DNVKYVSSVQRDKELLHAKYGKDIDKAEDVAKEYPSLESIVAKHPDIFVAGWNYGFSEEKNLTPDALKDQGIDSYILSESCRQEGSEKRGLYDPWEAVKMDISNIGKITSHADTADSVVKDIDSRLETLKKAPQADKAPTAFVFDSGTDTVFTSGKFGAPQAIIEAAGGRNGAENVEDTWTTVSWENLAASKPDVFVFVDYPGQEFEEKIAALRSNPATKNLPAVKENRFINLPYAMWTSGPLNIDAAEQMRKGFEKFGLVPSSEIKPSLELPASVPGQNYYK”, the “soluble on expression in E. coli” value is “not soluble”.

In the case of “MGHHHHHHSHMIMQEIFLCSISNVRSGDCKEDCAYCTQSSHHQGAIKRYKFKDEKVVLQEARALRQLGALGFCLVTSGRELDDEKCEYIAKLAKAINQEELGLHLIACCGRADLEQLEFLRDAGIHSYNHNLETSQNFFPKICSTHTWEERFITCENALRAGLGLCSGGIFGLNESWEDRIEMLRALASLSPHTTPINFFIKNPVLPIDAETLSADEALECVLLAKEFLPNARLMVAGGREVVFKDNDKKEAKLFEYGINAVVLGDYLTTKGKAPKKDIEKLLSYGLTMATSCH”, the “soluble on expression in E. coli” value is “soluble”.

Take “MGSDKIHHHHHHMAVKTIRTLAHFITACSEIKVKDDHTLFYRGHASDIYTPFPTIFRNQNDDPKKSRYIESEGELFHNLVTQCPEEFKDCTSTFDFLVKMQHYGLPTRLLDITSNPLVALYFACCTLIPESTKDKNAKNGQVLVYQVPNEEIKYYNSDTVSVISNLARVNTSFNFTDEEDRERFLHSIQAEKPYFKPYIKEAHLHSVICVKPKLDNRRIVKQSGAFFLFGMGKNKTDSIRISDKYRPDIKHIDIPKSSKETLLRELATLSISEATLFPEIDNVARFLKKEVKIKSLVVEEIEEEKLGNEISVAYQEFILNSLVLNTDLLEQIQHNSADRAMLGLYPELLQKAIIESQENYNEIALKLLVEEDSADKFAKNIFSKLKHKLEELS”: the “soluble on expression in E. coli” value was “not soluble”.

On to “MGSDKIHHHHHHMSKAKRLMELMMVINRKRRFTVKELAEEFSVSSRTILRDLQELSELGVPLYSEVGPHGGYEVLNERVLPPIAFTEEEAVAIFFTVHALRHFSALPFQAESSSVNHKFYSYMPEDVKERIDQLKNRFDFETPMRPLATPYLPTLLDAAIKQNVVSIEYETSQEKTKREIQPIGVYARDGFWYCPSYCFLREDMRLFRCDRITYVTEQTTNNPLNFRHVHLGNWQSYMKQERNVLDFYVELSQDGVQRCVAEQWLKPHLHIRQDGSGWLEGPFPESEVPYFSYYFIGFGHDATVKQPVQLVTLIKKSLRELLSKYNGEKEGLPQKSF”, for which the “soluble on expression in E. coli” value was “not soluble”.

Regarding “MSLYIETVRGKIKPEEFGVCACHEHLHIDLSRIKNDSDTALVEVALVLSDLKSFVSHGGQAIVDVTNDGMGRDVEKLVVMSEALDLHIVASTGCYKDPFIPEEKQMWTREQFAEWMIDEIMYGISGTTVKPGVIGEIGSSLNEFKPVELELFYGAIEAAKTTKLPLSTHTTLGTLAMEQIRLFDSESLPLDQVIIGHQDLNDDDEQVLKVLSTGAYVALDTIGKENYRSDEARLNSLLLFLEKGYEDQLLLSSDVTRTSHLLVHGGQGYDVVLRSFIPKLRAKGADEATIQKLLVKTHKKHLASREGHHHHHH”, the “soluble on expression in E. coli” value is listed as “not soluble”.

“MTFSCEPAELRSRAKAAFIGLAVGDALGAPVEFMTTGEIKAKHGVLREIVGGGWLRLKPGQVTDDTDMSLCVARGVAKAGEWNLTAIAEEFAAWLRSKPVDVGDTCRRGIRNYMLKGLLETPFNQWDAGNGAAMRMLPTALFTMGDDNLLCRCAVEQGHLTHNHPLSDAACITLGRLVHLSVLGFSKPRLRREADRLTESHPTFSFEPYRGLATGYVVDTMQTVLHFFFRGRDFEECLVSTVNQGGDADTTGAIIGMVAGAYYGMEEIPRRWLKKMDRQVLDEIDTLSDLLISLSPALRSGNGILLPPA”: the “soluble on expression in E. coli” value is recorded as “not soluble”.

Take “MLTQYRQAQEDILRGRVKVRVVGQDKGGGVVMGEGVEIAPGARIEGPVLIGGACHIATGAVVGPFTVLGPYTRVEEGATVRRSVLWDNVYTGEGANVRGAVVCSRASLQRRVQVYEGAVIGDGTQVDAGAEVRPEVKVWPEKTLEHHHHHH”: the “soluble on expression in E. coli” value was “not soluble”.

“MAHHHHHHMAGEPYLVYLLRCLAHQSGLTQLSPHFAVPTTEIDSDDGGAVAVVTAGHSANHPSRLFWERCVVVGVRVEPTTKNLLQTGWETQPCSHCVSQDGAAADAHDSPSRRSRLCVLPLLYGGTQCGECGHALSLVPTWTRALYLVLQRRDRSRAAAVAYGEEVHRHLWLGVTIDALLYTSATEQQQQLLVVHAAAGPAAAAPSATLPCAETTKGAFHIICQDERVNRLGLKWGDGTAFSAAANLHDVARRVAPQLQGQAHVKRLLLLVVLYIVYYGSHPAAAGSHRHPLHVLLVGPAKTGKSALLREVAQLIGLEAEVLDSTVVRTGGSGGAAGGSSFSAALPIRRSAVLMAGSGMTASTLVLDQLPSTAGGAAAMAPLLEAMERGHGCGAASGEGDAAAGGPDVHELPSTIIAAAGEESAAAVQLAPYFSLLAAVAPTNSLDDTAIISQDVVAASRARSSHSRATSRSMSRATQLSASSPHHSQRGPSISQSTSHRADPSSLSERLTHEDVCYLVRRAAEPVLLNSVVSHAACYDAFIDKLVDCAGLLEETQPSVCHALPPPSACRGQHRVGLPSAACDSLRAAPLAIDEHLRILCALSRARALLEHAEVLRDAGWTAQMRDEVWALYHGHLVAFADLMQRRSCSSGAMASRDPAEVLRTTSWSSSFFDACGGSTAAPAPAGYPSLSRFSGDAAALGRAWKGRMRAMSSREGLGLWHPQKTPSKKRCRLMFVEALRQRQCLSAQVESAVPPPEVEHVFGLLGGSSAFGDPLDVVISQMQEEGLLLRRPGGWRSL”: the “soluble on expression in E. coli” value is “not soluble”.

With “MVAADIGAGLADALTAPLDHKDKGLQSLTLDQSVRKNEKLKLAAQGAEKTYGNGDSLNTGKLKNDKVSRFDFIRQIEVDGQLITLESGEFQVYKQSHSALTAFQTEQIQDSEHSGKMVAKRQFRIGDIAGEHTSFDKLPEGGRATYRGTAFGSDDAGGKLTYTIDFAAKQGNGKIEHLKSPELNVDLAAADIKPDGKRHAVISGSVLYNQAEKGSYSLGIFGGKAQEVAGSAEVKTVNGIRHIGLAAKQHHHHHH”, the “soluble on expression in E. coli” value was “soluble”.

Take “MRIAAAVVSIGLAVIAGFAVPVADAHPSEPGVVSYAVLGKGSVGNIVGAPMGWEAVFTRPFQAFWVELPACNNWVDIGLPEVYDDPDLASFNGATTQTSATDQTHLVKQAVGVFASNDAADRAFHRVVDRTVGCSGQTTAIHLDDGTTQVWSFAGGPSTGTDEAWTKQEAGTDRRCFVQTRLRENVLLQAKVCQSGNAGPAVNVLAGAMQNTLG”: the “soluble on expression in E. coli” value is recorded as “soluble”.

Regarding “MPTPPVSVLVAQMGEGPAPLYARVKQMIIQQIDNGSWPPHHRVPSESELVNELGFSRMTINRALRELTAEGLLVRMQGVGTFVAEPKGRSALFEVNNIADEIAARGHQHSCQVITLAEEAAGSERALALDMREGQRVFHSLIVHFENGVPVQIEDRYVNAAIAPDYLKQDFTRQTPYAYLSQVAPLTEGEHVVEAILAEPEECTLLQIDRGEPCLLIRRRTWSGRQPVTAARLIHPGSRHRLEGRFSK”, the “soluble on expression in E. coli” value is on record as “not soluble”.

As to “MGAGMLGNINDIDLRMLRTFCAIVEAGGFTAAQARLNTSLSRLSVLVRDLEVRLGYSLCRRGNGGFQLTEEGQELYDAALGLFSDIARFREQVRGLGGRDREALHLGCVDGVIGQHCLPLPLAIRLFRQRAPEVLLKLHTRRPDELEHAVLEERLQLAVGAFHHRLSGLYYQPLFREEQNLYCGSAHPFFARADDEPTLGEICAADYVGRGYMAENHRPHDLRFNQGTDAYTMEAIATLVFSGTYIGYLPTHYAATWVAEGRMRAIRPRQLAYDSEFHCITRQGHEERPTLTLFLRSLFEAQKQLGVQVPANTNGIARQL”, the “soluble on expression in E. coli” value is “not soluble”.

Take “GPGSMAKHYKAIFAMSYEAELYAHLQASQRFNAGADAAVVLHADSDEAMRRHLGISIDPINGTNCCVGGVWQAPMTLVGIALDGVPIAGVMNRIFDYPLTCTYGPAATEPQEKACVPGLAVVLNTPTPASPFVVFDGGLVPAPGQMEQQLECTCETPLAVCRSSTTKEVFLQRLLTQLEPCNAVYSRGAGYKQYHLLKKMLTGRHVAHEAITPADIFVCPPGTIEKWDCCVVHAFLYALGGEIFDQNGVPIRYPLVGTYGAATTSLSEIAALTDGLVAVTPYAMHEVARRLGWTLTLAP”: the “soluble on expression in E. coli” value is reported as “not soluble”.

“IENYHVEEAENDLTQLANKVAVILENHEDQALARSITWELADNLTSIAIIQDEKNHWYSPNDKNRLSSITVEQIQHDKDLNKALKDHKKVSKRTGLSDTDTDNERLIVGVPYEKDGKKGMVFLSQSLLAVKDTTKHTTR”: the “soluble on expression in E. coli” value is reported as “not soluble”.

Turning to “MGSDKIHHHHHHMSLKQMECVVAVAKLRSFTKAAAKLKVAQPSLSQSIQAVEKQVGVPLFDRSTFPITLTHAGEVYVAKANAIIELYKDLNTQMCDVIGSDKGPLRLGFSQTGYQFIPTALAKFCKRFPCADLRVVQVFSTLKLEKMLSEGDIDIATLVLPLSSPEIDYKIIKENQAFLALPITHPLSQKAIREAQDSPSVSLEELKEERFILPKSTQRSRPIFDEIFRKAGFEPKIFCETETFDIANAIVASGVGACFTLPQFIKEDKQDKVVLFHVDEPLLARTVVLAYRKDKHLSKMACEFLTIARSL”, the “soluble on expression in E. coli” value was “not soluble”.

As to “MGSDKIHHHHHHMANLLTINHLSYSRNLQLILKDLNLELPYGQIVGLLGTNGAGKTTLMRLIAGNYIDRKNSISINTETNSAVRKSLVSFTEQVGGWSGHPRIFKIGNFYDALYEDFNLTTFNQLLSNLNLSPDQRVNQLSKGNFRKLVIAVTLARQTDLYLLDEPFDGIDSMTRKKIISSIIQWKPENATVLVSDHHVGDIANLLDQVVIIKDQHVAAQEAADTIRETLGKDIETYYEDFYREEL”, the “soluble on expression in E. coli” value was “not soluble”.

“GSHMASEKVAVETSVYLSELEWKSASTGYGEIQKDASCDGNTITLKGENGEKVSYDKGIGTHAHSEIVYSLEGLDYYDYFETFVGVDQEMAGTVASISFEVYLDNEKVFDSGLMTGDTTQKHVKVPIAGKNTLKLVVKDGGDSIGSDHGSFGDAKLT”: the “soluble on expression in E. coli” value was “soluble”.

As to “GSHMIAPLSVKDNDKWVDTHVGKTTEIHLKGNPTTGYMWTRVGFVGKDVLSDEILEVVCKYTPTPSSTPMVGVGGIYVVLVKPRKRGHHTLELVYTRPFEGIKPENERYTLHLNVK”, the “soluble on expression in E. coli” value is recorded as “soluble”.

For the sequence “LQERDIVPVDASYEVKELYVPENKLHLAKTDAETLPALKINKVDMQWVQVLAEGWATPLNGFMREREYLQCLHFDCLLDGGVINLSVPIVLTATHEDKERLDGCTAFALMYEGRRVAILRNPEFFEHRKEERCARQWGTTCKNHPYIKMVMEQGDWLIGGDLQVLDRVYWNDGLDQYRLTPTELKQKFKDMNADAVFAFQLRNPVHNGHALLMQDTHKQLLERGYRRPVLLLHPLGGWTKDDDVPLMWRMKQHAAVLEEGVLNPETTVVAIFPSPMMYAGPTEVQWHCRARMVAGANFYIVGRDPAGMPHPETGKDLYEPSHGAKVLTMAPGLITLEIVPFRVAAYNKKKKRMDYYDSEHHEDFEFISGTRMRKLAREGQKPPEGFMAPKAWTVLTEYYKSLEKA”, the “soluble on expression in E. coli” value is reported as “soluble”.

With “MGYIQSGKSKVEIVNVSETVTSAANVSQYPVESGAPITDNMMYTGGPVTISGWILAKNGNAAEQAYNTLVAWQKDVRWIVYRGRSYFKNAVIQDISKGYDTVENGFTITITLQPIRVAKTIWEKIPQPPVAKQPSKPSNAVYVTVQPGNTYWGWWQQYGTSIQQLRDWNKWPDRFIPIGARARVK”, the “soluble on expression in E. coli” value was “not soluble”.
